Reference: patent US20130177528A1, “COMPOSITIONS AND METHODS FOR INHIBITING VIRAL INFECTION” (WESTERN UNIVERSITY OF HEALTH SCIENCES, priority 2011, published 2013)

Key:
[1] = system: HSV-2 (333 gJ-reporter virus); assay: HSV-2 infection of HeLa cells, ONPG assay (Example 4); type: cell-based; conditions: virus pre-incubated; starting concentration 1 mg/ml
Protocol: (§1) In this experiment different clinical strains of HSV-1 (F, G, and MP strains of HSV-1 [37] at 25 pfu/cell) were either pre-incubated with 1×PBS (control) or with CN at the concentrations indicated in FIG. 8, panel A for 90 min at room temperature. After 90 min of incubation the two pools of viruses were incubated with Nectin-1 receptor expressing CHO Igβ cells that express β-galactosidase upon viral entry as described. The viral infection blocking was measured by ONPG assay (FIG. 8, panel A). Similar experiment was conducted using Lac Z encoded HSV-2 (333 gJ-reporter virus). HSV-2 is a genital herpes virus. […] Each value shown is the mean of three or more determinations (±SD).

HSV-1 (KOS) gL86 [2] = assay: HSV-1 entry into natural target cells (HeLa, human corneal fibroblasts), cells pre-incubated with CN (Example 9); type: cell-based, herpes simplex virus type-1; conditions: for HSV-1 entry (β-galactosidase activity, OD 410): 25 pfu/cell, 6 h
Protocol: In this experiment (A) HeLa and (B) primary cultures of human corneal fibroblasts (CF) were used. They were either pre-treated with contortrostatin (CN) at indicated concentrations or mock-treated (positive control [+]) with phosphate saline buffer for 90 min at room temperature. β-galactosidase-expressing recombinant virus herpes simplex virus type-1 (HSV-1; KOS) gL86 (25 pfu/cell) was used to infect cells. Uninfected cells were kept as negative control (−). After 6 h, the cells were washed, permeabilized and incubated with […] expressed from the input viral genome. The enzymatic activity was measured at an optical density of 410 nm (OD 410). Error bars represent SD. a=significant difference from controls and/or treatments (P<0.05, t-test).
To confirm blocking activity of CN on HSY-I entry, HeLa and primary cultures of human CF were used. It has been shown that HeLa and human CF naturally express gD receptors. […] This raises the possibility that the effect of CN can be more pronounced in the natural target cells and that it may not depend on gD receptors. […] The inhibitory effect is likely dependent on the type of integrins expressed on the surface of cells.

HSV-1 (KOS) gL86 [3] = assay: HSV-1 infection of HeLa cells at MOIs 5, 15 and 25 PFU/cell (Example 6); type: cell-based, herpes simplex virus type-1; conditions: virus pre-incubated 180 min, 6 hr
Protocol: HeLa cells were each grown to 100% confluency in 96-well plates. The β-galactosidase-expressing recombinant virus HSV-1 (KOS) HSV-1 gL86 […] was pre-incubated at MOIs of 5 (FIG. 10, panel A), 15 (FIG. 10, panel B) and 25 (FIG. 10, panel C) plaque-forming units per cell (PFU) with VCN (VN), CN or ADAM15 (Ad15) at the concentrations indicated or mock treated with 1 X phosphate saline buffer for 180 min at room temperature. After 6 hr, the cells were washed, permeabilized and incubated with ONPG substrate (3.0 mg/ml). The β-gal enzymatic activity was measured at an optical density of 410 nm (OD 410). Mock treated HSV-1 with PBS was used as a […] control ((+) infected with virus alone; (−) uninfected control).

[4] = system: HSV-1 strains F, G and MP; assay: Entry of clinical HSV-1 strains into nectin-1 CHO Ig8 cells, cells pre-incubated with CN (Example 10); type: cell-based, herpes simplex virus type-1; conditions: nectin-1 CHO Ig8 cells pre-incubated with 10 μM, MP at 25 pfu/cell, 6 h
Protocol: (A) In this experiment nectin-1 Chinese hamster ovary (CHO) Ig8 cells that express β-galactosidase upon viral entry were pre-treated with 10 μM contortrostatin (CN; indicated as treated [Tr]) or mock treated (indicated as untreated [Un]) with phosphate saline buffer for 90 min at room temperature followed by infection using clinical isolates of herpes simplex virus type-1 (HSV-1; F,G, and MP at 25 pfu/cell) for 6 h. The viral entry blocking was measured by o-nitro-phenyl-β-o-galactopyranoside (ONPG) assay as previously described. Error bars represent SD. (B) Confluent monolayers of HeLa cells were infected with HSV-1 (804) strain at 0.01 PFU/cell in presence (panel i) and absence (panel ii) of CN for 2 h at 37° C. Viral replication in HeLa cells were visualized 24 h post-infection for plaques. a=significant differences from corresponding mock-treated controls (P<0.05, t-test).
The next question was to evaluate the broader significance of CN as an anti-HSV agent. Therefore the ability of CN to block viral entry in different clinical virulent strains of HSV-1 (F, G and MP) was tested. Here, nectin-1 expressing CHO Ig8 cells that express β-galactosidase upon viral entry were used. The cells were preincubated with CN at 10 μM and then infected with clinical isolates of HSV-1.

[5] = system: HSV-1 strains F, G, and MP; assay: Infection of nectin-1 CHO Igβ cells by clinical HSV-1 strains, virus pre-incubated (Example 4); type: cell-based, herpes simplex virus type-1; conditions: MP at 25 pfu/cell pre-incubated 90 min
Protocol: as §1

B1: contortrostatin (protein)
chain: DAPANPCCDAATCKLTTGSQCADGLCCDQCKFMKEGTVCRRARGDDLDDYCNGISAGCPRNPFHA
[1]
  HSV-2 infection of HeLa cells (dose response, ONPG assay): blocks infection
HSV-1 (KOS) gL86 [2]; HeLa cells pre-incubated 90 min
  HSV-1 entry (β-galactosidase activity, OD 410): significant blocking of HSV-1 entry
HSV-1 (KOS) gL86 [2]; natural target cells (HeLa and CF)
  concentration at which strong inhibition of entry was observed: < 1 µM
HSV-1 (KOS) gL86 [2]; primary human corneal fibroblasts (CF) pre-incubated 90 min
  HSV-1 entry (β-galactosidase activity, OD 410): significant blocking of HSV-1 entry
HSV-1 (KOS) gL86 [3]
  HSV-1 infection of HeLa cells, blocking and rank order (β-gal activity, OD 410): blocked by CN >VCN >ADAM15
[4]
  entry of clinical HSV-1 strains (ONPG assay): blocked the entry of different strains of HSV-1
[5]
  HSV-1 infection blocking activity across viral strains (ONPG assay): not viral-strain specific
